Results published in patent US20070207967A1, “Peptide Inhibitors of Matrix Metalloproteinase Activity” (CTT CANCER TARGETING TECHNOLOGIES OY, priority 2004, published 2007).
Ends that are not written are not given here.

Target: 125I-labelled MMP-9 C domain (UniProt P14780)
Test: phage-binding assay, 125I-labelled against unlabelled MMP-9 C domain

Sequence of 125I-labelled MMP-9 C domain (P14780 513-707 limits assumed, form in doubt): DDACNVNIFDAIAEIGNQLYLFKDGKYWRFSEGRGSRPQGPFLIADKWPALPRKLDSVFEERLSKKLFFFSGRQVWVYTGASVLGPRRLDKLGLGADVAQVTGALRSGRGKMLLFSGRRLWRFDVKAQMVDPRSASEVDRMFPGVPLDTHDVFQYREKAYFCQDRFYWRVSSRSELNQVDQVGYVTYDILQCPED

B1: CRV phage (… displayed on phage) (peptide)
peptide: CRVYGPYLLC
modifications: cysteine pairing not given here; also: displayed on phage as coat protein fusion
% of CRV peptide-binding activity retained after 125I-labelling: 40%
